The target of the assay is MDA5ΔN (residues 287–1025) (human) (UniProt Q9BYX4).
Sequence of MDA5ΔN (residues 287–1025) (human) (Q9BYX4 287-1025, stated change not applied): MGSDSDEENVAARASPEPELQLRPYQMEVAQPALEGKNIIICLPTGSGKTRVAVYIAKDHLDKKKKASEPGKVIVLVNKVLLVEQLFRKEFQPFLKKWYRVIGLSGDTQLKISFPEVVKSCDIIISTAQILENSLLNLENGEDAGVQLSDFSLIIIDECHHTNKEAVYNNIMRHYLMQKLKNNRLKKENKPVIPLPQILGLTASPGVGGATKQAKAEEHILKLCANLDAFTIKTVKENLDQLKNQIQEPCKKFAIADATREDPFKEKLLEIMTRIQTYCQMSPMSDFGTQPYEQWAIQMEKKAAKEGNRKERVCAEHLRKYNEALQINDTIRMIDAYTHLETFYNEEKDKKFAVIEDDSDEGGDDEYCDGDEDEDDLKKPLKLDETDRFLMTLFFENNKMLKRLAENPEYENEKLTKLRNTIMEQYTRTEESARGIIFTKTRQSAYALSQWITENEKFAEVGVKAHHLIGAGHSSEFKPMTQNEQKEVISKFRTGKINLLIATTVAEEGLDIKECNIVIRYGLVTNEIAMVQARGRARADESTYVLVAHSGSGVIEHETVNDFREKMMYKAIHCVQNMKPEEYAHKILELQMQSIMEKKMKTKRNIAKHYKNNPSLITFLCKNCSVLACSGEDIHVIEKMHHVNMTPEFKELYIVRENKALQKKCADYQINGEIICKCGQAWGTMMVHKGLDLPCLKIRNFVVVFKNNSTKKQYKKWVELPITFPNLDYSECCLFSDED

B1: LGP2(E116A, E117A, D603A) (natural protein)
chain: MELRSYQWEVIMPALEGKNIIIWLPTGAGKTRAAAYVAKRHLETVDGAKVVVLVNRVHLVTQHGEEFRRMLDGRWTVTTLSGDMGPRAGFGHLARCHDLLICTAELLQMALTSPEAAEHVELTVFSLIVVDECHHTHKDTVYNVIMSQYLELKLQRAQPLPQVLGLTASPGTGGASKLDGAINHVLQLCANLDTWCIMSPQNCCPQLQEHSQQPCKQYNLCHRRSQDPFGDLLKKLMDQIHDHLEMPELSRKFGTQMYEQQVVKLSEAAALAGLQEQRVYALHLRRYNDALLIHDTVRAVDALAALQDFYHREHVTKTQILCAERRLLALFDDRKNELAHLATHGPENPKLEMLEKILQRQFSSSNSPRGIIFTRTRQSAHSLLLWLQQQQGLQTVDIRAQLLIGAGNSSQSTHMTQRDQQEVIQKFQDGTLNLLVATSVAEEGLDIPHCNVVVRYGLLTNEISMVQARGRARADQSVYAFVATEGSRELKRELINEALETLMEQAVAAVQKMDQAEYQAKIRDLQQAALTKRAAQAAQRENQRQQFPVEHVQLLCINCMVAVGHGSDLRKVEGTHHVNVNPNFSNYYNVSRDPVVINKVFKAWKPGGVISCRNCGEVWGLQMIYKSVKLPVLKVRSMLLETPQGRIQAKKWSRVPFSVPDFDFLQHCAENLSDLSLD
B1 came in with a proportion of MDA5ΔN translocation events that were stopped (immobile) on 11.6-kb dsRNA with LGP2(intermut), smTIRF of 23%.

The record behind these values is publication PMC12589613.
